The values below come from patent US11833164B2, “Methods of treating Fabry disease in patients having a mutation in the GLA gene” (Amicus Therapeutics, Inc., priority 2019, dated 2023).

The test concerns mutant form of α-Gal A expressed in HEK-293 cells. The test can be described thus: HEK assay (GLP HEK / Migalastat Amenability Assay): α-Gal A activity in lysates of transiently transfected HEK-293 cells incubated with or without 10 μM migalastat. It is filed as cell-based, human. The note with it: for Absolute increase (% WT) / Relative increase: 10 μM migalastat versus baseline; for Baseline α-Gal A activity (% WT): absence of migalastat; for Baseline α-Gal A activity (% WT) / 10 μM migalastat α-Gal A activity (% WT): percentage of baseline wild-type α-Gal A activity; for Baseline α-Gal A activity (% WT) / Baseline α-Gal A activity / 10 μM migalastat α-Gal A activity / 10 μM migalastat α-Gal A activity (% WT): mean ± SEM; for Baseline α-Gal A activity / 10 μM migalastat α-Gal A activity: lysates of HEK-293 cells transiently transfected with the mutant form; for Baseline α-Gal A activity: incubated 5 days in absence of migalastat; for 10 μM migalastat α-Gal A activity: incubated 5 days with 10 μM migalastat; for 10 μM migalastat α-Gal A activity (% WT): with 10 μM migalastat, 5 days. The essentials: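 Activity reported as 4-MU released (nmol/mg/hr), mean±SEM, from lysates of transiently transfected HEK-293 cells expressing mutant α-Gal A, cultured with or without 10 μM migalastat.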

B1: N355H (protein)
chain: MQLRNPELHLGCALALRFLALVSWDIPGARALDNGLARTPTMGWLHWERFMCNLDCQEEPDSCISEKLFMEMAELMVSEGWKDAGYEYLCIDDCWMAPQRDSEGRLQADPQRFPHGIRQLANYVHSKGLKLGIYADVGNKTCAGFPGSFGYYDIDAQTFADWGVDLLKFDGCYCDSLENLADGYKHMSLALNRTGRSIVYSCEWPLYMWPFQKPNYTEIRQYCNHWRNFADIDDSWKSIKSILDWTSFNQERIVDVAGPGGWNDPDMLVIGNFGLSWNQQVTQMALWAIMAAPLFMSNDLRHISPQAKALLQDKDVIAINQDPLGKQGYQLRQGDNFEVWERPLSGLAWAVAMIHRQEIGGPRSYTIAVASLGKGVACNPACFITQLLPVKRKLGFYEWTSRLRSHINPTGTVLLQLENTMQMSLKDLL
Take B1: the “Absolute increase (% WT)” value is given as 9.9 % WT, the Relative increase stood at 3.5, the “Baseline α-Gal A activity (% WT)” value came out at 4 ± 0.2 % WT and the “Baseline α-Gal A activity” value came to 1822 ± 81 nmol/mg/h. The “10 μM migalastat α-Gal A activity” value was 6399 ± 338 nmol/mg/h and the “10 μM migalastat α-Gal A activity (% WT)” value came out at 13.9 ± 0.6 % WT.

B2: N355S (protein)
chain: MQLRNPELHLGCALALRFLALVSWDIPGARALDNGLARTPTMGWLHWERFMCNLDCQEEPDSCISEKLFMEMAELMVSEGWKDAGYEYLCIDDCWMAPQRDSEGRLQADPQRFPHGIRQLANYVHSKGLKLGIYADVGNKTCAGFPGSFGYYDIDAQTFADWGVDLLKFDGCYCDSLENLADGYKHMSLALNRTGRSIVYSCEWPLYMWPFQKPNYTEIRQYCNHWRNFADIDDSWKSIKSILDWTSFNQERIVDVAGPGGWNDPDMLVIGNFGLSWNQQVTQMALWAIMAAPLFMSNDLRHISPQAKALLQDKDVIAINQDPLGKQGYQLRQGDNFEVWERPLSGLAWAVAMISRQEIGGPRSYTIAVASLGKGVACNPACFITQLLPVKRKLGFYEWTSRLRSHINPTGTVLLQLENTMQMSLKDLL
For B2, the “Absolute increase (% WT)” value is on record as 30.8 % WT, the Relative increase is on record as 2.2, the “Baseline α-Gal A activity (% WT)” value was 25.9 ± 1.6 % WT and the “Baseline α-Gal A activity” value was 11397 ± 817 nmol/mg/h. The “10 μM migalastat α-Gal A activity” value was found to be 24820 ± 1396 nmol/mg/h and the “10 μM migalastat α-Gal A activity (% WT)” value came to 56.7 ± 2.8 % WT.

B3: N355Y (protein)
chain: MQLRNPELHLGCALALRFLALVSWDIPGARALDNGLARTPTMGWLHWERFMCNLDCQEEPDSCISEKLFMEMAELMVSEGWKDAGYEYLCIDDCWMAPQRDSEGRLQADPQRFPHGIRQLANYVHSKGLKLGIYADVGNKTCAGFPGSFGYYDIDAQTFADWGVDLLKFDGCYCDSLENLADGYKHMSLALNRTGRSIVYSCEWPLYMWPFQKPNYTEIRQYCNHWRNFADIDDSWKSIKSILDWTSFNQERIVDVAGPGGWNDPDMLVIGNFGLSWNQQVTQMALWAIMAAPLFMSNDLRHISPQAKALLQDKDVIAINQDPLGKQGYQLRQGDNFEVWERPLSGLAWAVAMIYRQEIGGPRSYTIAVASLGKGVACNPACFITQLLPVKRKLGFYEWTSRLRSHINPTGTVLLQLENTMQMSLKDLL
Regarding B3, the “Absolute increase (% WT)” value is given as 26.6 % WT, the Relative increase is given as 2.8, the “Baseline α-Gal A activity (% WT)” value came out at 15.2 ± 1 % WT and the “Baseline α-Gal A activity” value was 5994 ± 461 nmol/mg/h. For the same molecule, the “10 μM migalastat α-Gal A activity” value amounted to 16930 ± 1745 nmol/mg/h and the “10 μM migalastat α-Gal A activity (% WT)” value came to 41.8 ± 3.3 % WT.
